This assay deals with OB-RL(wt). The assay is described as follows: cell-based or functional assay.

In turn, Leptin (ligand) showed a Reporter Activity (GT1-7 cells, leptin +; 3041 without leptin) of 27000; a Reporter Activity (cells co-transfected with 84569 cDNA, leptin +; 4146 without leptin) of 7600; a Reporter Activity (cells co-transfected with control vector, leptin +; 4316.5 without leptin) of 25000.

The values above are taken from patent publication US20040067513A1.
